{"source": "paper PMC3939855", "about": "(Nature immunology, 2013)", "key": {"native gel or EMSA": {"target": "the molecule itself", "assay": "native gel or EMSA"}, "[1]": {"target": "the molecule itself"}}, "note": "Where two headings read alike, the source gives them in different places.", "data": [{"protein": "ELF4 (endogenous, human cells) (natural protein) not shown", "values": [{"measurement": "stoichiometry N", "setting": "native gel or EMSA", "value": 2}]}, {"protein": "ELF4 (expressed from a plasmid; tag not stated for the experiment) (natural protein) not shown", "values": [{"measurement": "stoichiometry N", "setting": "[1]", "value": 2}]}, {"protein": "ELF4 (endogenous, mouse cells) (natural protein) not shown", "values": [{"measurement": "stoichiometry N", "setting": "native gel or EMSA", "value": 2}]}]}
